In the Immune Epitope Database (IEDB):

Key:
Experiment in all cases: IEDB peptide-MHC binding, purified MHC/direct/fluorescence; filed as Kd, often an IC50 or EC50 that approximates it; ≥ and ≤ were set here for values at or beyond the usual limits of such assays
HLA-A*31:01 = details: source organism: Salmonella enterica
HLA-A*69:01 = details: source organism: Salmonella enterica
HLA-B*57:01 = details: source organism: Salmonella enterica
HLA-A*29:02 = details: source organism: Salmonella enterica subsp. enterica serovar Typhimurium str. LT2
HLA-B*58:01 = details: source organism: Salmonella enterica
HLA-A*02:19 = details: source organism: Salmonella enterica subsp. enterica serovar Typhimurium str. LT2
HLA-A*01:01 = details: source organism: Salmonella enterica
HLA-B*51:01 = details: source organism: Salmonella enterica subsp. enterica serovar Typhimurium str. LT2
HLA-B*08:02 = details: source organism: Salmonella enterica subsp. enterica serovar Typhimurium str. LT2
HLA-A*24:03 = details: source organism: Salmonella enterica subsp. enterica serovar Typhimurium str. LT2
HLA-B*08:01 = details: source organism: Salmonella enterica subsp. enterica serovar Typhimurium str. LT2
HLA-A*02:11 = details: source organism: Salmonella enterica subsp. enterica serovar Typhimurium str. LT2
HLA-A*02:12 = details: source organism: Salmonella enterica subsp. enterica serovar Typhimurium str. LT2
HLA-A*03:01 = details: source organism: Salmonella enterica
HLA-B*18:01 = details: source organism: Salmonella enterica subsp. enterica serovar Typhimurium str. LT2
HLA-B*39:01 = details: source organism: Salmonella enterica subsp. enterica serovar Typhimurium str. LT2
HLA-B*48:01 = details: source organism: Salmonella enterica
HLA-B*38:01 = details: source organism: Salmonella enterica subsp. enterica serovar Typhimurium str. LT2
HLA-B*27:05 = details: source organism: Salmonella enterica
HLA-A*02:50 = details: source organism: Salmonella enterica subsp. enterica serovar Typhimurium str. LT2
HLA-B*46:01 = details: source organism: Salmonella enterica
HLA-A*26:02 = details: source organism: Salmonella enterica subsp. enterica serovar Typhimurium str. LT2
HLA-B*40:01 = details: source organism: Salmonella enterica
HLA-A*23:01 = details: source organism: Salmonella enterica subsp. enterica serovar Typhimurium str. LT2
HLA-A*11:01 = details: source organism: Salmonella enterica

Sequence: FPASHMATY
- Kd (HLA-A*31:01): ≥ 20 µM
- Kd (HLA-A*69:01): ≥ 20 µM
- Kd (HLA-B*57:01): ≥ 20 µM
- Kd (HLA-A*29:02): 0.114 µM
- Kd (HLA-B*58:01): ≥ 20 µM
- Kd (HLA-A*02:19): ≥ 20 µM
- Kd (HLA-A*01:01): ≥ 20 µM
- Kd (HLA-B*51:01): ≥ 20 µM
- Kd (HLA-B*08:02): ≥ 20 µM
- Kd (HLA-A*24:03): ≥ 20 µM
- Kd (HLA-B*08:01): ≥ 20 µM
- Kd (HLA-A*02:11): ≥ 20 µM
- Kd (HLA-A*02:12): ≥ 20 µM
- Kd (HLA-A*03:01): ≥ 20 µM
- Kd (HLA-B*18:01): 0.007 µM
- Kd (HLA-B*39:01): ≥ 20 µM
- Kd (HLA-B*48:01): ≥ 20 µM
- Kd (HLA-B*38:01): ≥ 20 µM
- Kd (HLA-B*27:05): ≥ 20 µM
- Kd (HLA-A*02:50): ≥ 20 µM
- Kd (HLA-B*46:01): 9 µM
- Kd (HLA-A*26:02): ≤ 0.001 µM
- Kd (HLA-B*40:01): ≥ 20 µM
- Kd (HLA-A*23:01): ≥ 20 µM
- Kd (HLA-A*11:01): ≥ 20 µM
